# B1: anti-CD20 antibody MIL62 (antibody, human IgG1, kappa)
# light: DIVMTQTPLSLPVTPGEPASISCRSSKSLLHSNGITYLYWYLQKPGQSPQLLIYQMSNLVSGVPDRFSGSGSGTDFTLKISRVEAEDVGVYYCAQNLELPYTFGGGTKVEIKRTVAAPSVFIFPPSDEQLKSGTASVVCLLNNFYPREAKVQWKVDNALQSGNSQESVTEQDSKDSTYSLSSTLTLSKADYEKHKVYACEVTHQGLSSPVTKSFNRGEC
# heavy: not shown
# modifications: N-glycans on the Fc region, not bisected by N-acetylglucosamine; core-fucosylated glycans 0.43% in the example batch (made in CHOK1-AF cells, Slc35c1 knocked out)
# notes: In the FcγRIIIa ELISA the IgG was pre-complexed with goat F(ab')2 anti-human-κ antibody at 1:2 (w/w); also called MIL62 antibody; humanized anti-CD20 antibody of the present invention
# B2: GAZYVA® (obinutuzumab) (antibody, human IgG1, kappa)
# light: B1 light
# heavy: not shown
# modifications: N-glycans on the Fc region, more than 76% bisected by GlcNAc; core-fucosylated glycans 48.03% in the example batch
# notes: In the FcγRIIIa ELISA the IgG was pre-complexed with goat F(ab')2 anti-human-κ antibody; also called afutuzumab; GA101
# Key:
# [1] = target: T1, FcγRIIIa(V158) (Sino Biological Inc, 10389-H08C1) (UniProt P08637 17-208); test: binding ELISA; His-tagged FcγRIIIa captured by anti-His antibody, IgG pre-complexed with goat F(ab')2 anti-human-κ (value in the text differs from Table 4)
# T1 construct: also called Fc gamma receptor IIIa
# Procedure: (§1) High protein binding Costar 96-well plates were coated with anti-His antibody (Genscript, A00186) (1 μg/ml, 100 μl/well) in a coating buffer (0.05 M sodium carbonate buffer, pH 9.6) overnight at 4° C. The wells were washed twice with PBS/0.05% Tween 20 (pH 7.4). The plates were blocked with 5% Non-Fat Milk Powder/PBS (pH 7.4) for 1.5 hours at 37′C. Plates were washed and FcγRIIIa (Sino Biological Inc, 10389-H08C1) (1 μg/ml, 100 μl/well) in PBS/0.05% Tween 20, pH 7.4 (assay buffer) was added to the plates. Antibodies were pre-incubated with goat F(ab′)₂anti-human-κ antibody (Sigma) at a 1:2 (w/w) ratio in assay buffer for 1 h to form complex to increase binding avidity. […] After a 2 h incubation, plates were washed and bound IgG was detected by adding horseradish peroxidase (HRP)) labeled goat F(ab′)2 anti-human IgG F(ab′)2 (Sigma). After a final 1 hour incubation, plates were washed and the substrate 3,3′,5,5′-tetramethyl benzidine (TMB) (InnoReagents) was added. The reaction was stopped by adding 1 M phosphoric acid, and the OD was measured at 450 nm using a microplate reader Spectra MAX I3 (Molecular Devices).
# [2] = target: CD16a on effector cells NK92MI-CD16a (UniProt P08637 17-254, limits assumed); test: cell-based or functional assay
# [3] = target: T1, FcγRIIIa(V158) (Sino Biological Inc, …); test: binding ELISA; His-tagged FcγRIIIa captured by anti-His antibody, IgG pre-complexed with goat F(ab')2 anti-human-κ, HRP anti-human F(ab')2 detection
# Procedure: as §1
# T1 sequence (P08637 17-208 F176V limits assumed): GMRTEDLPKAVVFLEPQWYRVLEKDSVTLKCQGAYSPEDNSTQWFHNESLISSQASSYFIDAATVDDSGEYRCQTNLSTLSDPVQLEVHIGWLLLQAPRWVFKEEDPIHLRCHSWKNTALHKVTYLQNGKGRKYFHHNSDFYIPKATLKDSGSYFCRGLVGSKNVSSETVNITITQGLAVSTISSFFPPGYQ
# Chain of CD16a on effector cells NK92MI-CD16a (P08637 17-254 limits assumed): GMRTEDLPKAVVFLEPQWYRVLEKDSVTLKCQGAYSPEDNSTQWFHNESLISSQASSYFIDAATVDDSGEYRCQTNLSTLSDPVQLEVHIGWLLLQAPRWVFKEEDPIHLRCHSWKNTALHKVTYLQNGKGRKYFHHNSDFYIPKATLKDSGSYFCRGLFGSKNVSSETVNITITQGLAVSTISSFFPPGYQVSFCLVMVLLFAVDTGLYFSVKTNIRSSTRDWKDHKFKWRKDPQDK
binder,measurement,setting,value
B1,EC50,[1],55 ng/mL
same,"ADCC Target cell: Daudi, EC50",[2],0.0488 ng/mL
same,"ADCC Target cell: Raji, EC50",[2],0.00738 ng/mL
same,EC50,[3],52 ng/mL
B2,"ADCC Target cell: Daudi, EC50",[2],0.111 ng/mL
same,"ADCC Target cell: Raji, EC50",[2],0.0143 ng/mL
same,EC50,[3],113 ng/mL

# — US20220064321A1 (published 2022)
